Reference: IntAct's records for PubMed 16979624

Columns and labels:
[1] = target: enah_human ENAH (UniProt Q8N8S7)
[2] = target: home3_human HOMER3 (UniProt Q9NSC5)
Sequence of UniProt Q9NSC5 (Q9NSC5 whole entry): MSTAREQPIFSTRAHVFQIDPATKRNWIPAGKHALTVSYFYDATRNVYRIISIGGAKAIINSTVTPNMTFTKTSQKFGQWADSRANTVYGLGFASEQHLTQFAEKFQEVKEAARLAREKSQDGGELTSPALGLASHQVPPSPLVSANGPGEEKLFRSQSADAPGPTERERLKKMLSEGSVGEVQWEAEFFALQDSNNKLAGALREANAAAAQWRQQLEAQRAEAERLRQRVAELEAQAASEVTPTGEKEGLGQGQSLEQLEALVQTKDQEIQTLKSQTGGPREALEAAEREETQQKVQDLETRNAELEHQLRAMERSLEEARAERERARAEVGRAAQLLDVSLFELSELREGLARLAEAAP

Sequence of UniProt Q8N8S7 (Q8N8S7 whole entry): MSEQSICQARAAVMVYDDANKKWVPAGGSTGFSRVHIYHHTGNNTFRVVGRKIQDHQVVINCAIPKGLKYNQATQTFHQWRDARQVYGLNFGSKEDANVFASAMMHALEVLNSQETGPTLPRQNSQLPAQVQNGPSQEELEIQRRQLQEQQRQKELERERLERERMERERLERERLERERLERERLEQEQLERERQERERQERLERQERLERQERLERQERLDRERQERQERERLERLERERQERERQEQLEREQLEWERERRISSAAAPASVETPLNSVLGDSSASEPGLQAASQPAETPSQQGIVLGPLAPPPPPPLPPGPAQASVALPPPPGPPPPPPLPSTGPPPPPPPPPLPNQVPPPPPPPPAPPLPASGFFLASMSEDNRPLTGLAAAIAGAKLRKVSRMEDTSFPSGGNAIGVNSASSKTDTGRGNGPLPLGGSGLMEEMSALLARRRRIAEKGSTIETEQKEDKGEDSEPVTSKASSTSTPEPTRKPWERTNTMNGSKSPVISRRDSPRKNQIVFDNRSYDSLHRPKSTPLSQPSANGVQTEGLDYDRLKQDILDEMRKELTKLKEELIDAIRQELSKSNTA

effect of a mutation on the interaction [1]: disrupting interaction | effect of a mutation on the interaction [2]: disrupting interaction
Substance: Protocadherin Fat 1 (Homo sapiens), Q14517 P4438D
